This series can be described thus: label from the status in PepcDB records.

“MEIGVSGASGQLGKAVLAELAARGAGHRVVGISRTPERVPAPAQGRLGDYDRAETLLQAYRGLDRLLLIPSADLGPGVRGRQFTAAIDAAVRAGVKHIVMVSTAGTRELAEPALGAAYWVGEQRLVKTAPRWTILRMNYYAESFAQQAPMFLGSGILPGLGENRVAFVSRDDVAAAAAGILLGEGHAGAIYNATGPVALSGAQRAALVAELSGKPLRFAVSDEAPLRQGLAQAGLPGGFVDAVIDLEKSFVAGAFDVVTGDVARLAGREPRALRTLLADSLRPAVADA”: the protein production entry is on record as “failed”.
Take “MEIHSSAAAEVFPVCRSLLGKLPAHSHNRSVAPTVCDYYPQIMKTYNSKMTTQHSSDIRNSQNISASFVTPHDAPVTSRKYVPKFNSNNHRIKTAAAFEKGSDIYHAVRPNYPNSVIELLNLSPNSRVLDIGCGTGKLTEQIAQQTSSVYALDPSKDMLDSFRSTLDIPSWQATAEQTAVSDSRFSTLTCAQTWHWVEPLAASAELDRISTDDAQLLLVWNTLDVSVPWVHRLSRIMHSGDTLAEGFIPHVAQPWELVSVLRGKHAQELYPDQIHTLAHTRSYWLRASEKTREKLTHNLSWYLTDHLELPSTSLVEIPYRFDAFLYKKALVKTQ”: the protein production entry is recorded as “failed”.
In the case of “MEIIAAILVGIVALEHLFIMILEMFFMNSKVAKRAFKLPEHLEGDRNVAIMFANQGLYNGFLAVGLIWGLILGFNSIGYMVQLFFVMCVVVAALFGGFTSNKSIIVKQGLPAILALIALLIVI” it was “failed”.
“MEIKDLKRLARYNPEKMAKIPVFQSERMLYDLYALLPGQAQKVHVHEGSDKVYYALEGEVVVRVGEEEALLAPGMAAFAPAGAPHGVRNESASPALLLVVTAPRP”: the protein production result was “not failed”.
“MEINRQIIHPLIFVAFFVTITGSVAGAAAAPEVNMELVGHFGGTTDAVDVAGNYAYVGQGQDFLILDITNPSSPVLVSKIMTEGFVRDIKVSRNYAYVADDDNGLVIVDISNPSSPTLKGSYNIPGYTYCITVSGNYAYVADNDGLVIVDISNPSDPILKGRYAGPTGDVAVYGNYAYVADWGNGLMIVDISNPSSPVLKGSYDTAGDIYGVSISGNYAYVADGDTGLVIVDISNPSSPTLKGNYNTAGIACDVSVLGNYAYVADNDNGLVIVDISDPSSPVLKGNGSTTGYAHGIEVSGNYAYVANSNTGLVIVDISNPSSPTLKGSCDTIVRAKSIAVSGNYAYIADWDNGLVIVDISNPSSPFLKGSCDTPRSAQGVAVSGNYAYVADDDGLVIVDISNPSFPILNKSYNTGGWAQGITVSGNYAYVIDMANGIFIVDISNPSSPILEGMYDTSPIIIENYDYTGSIWSVSVSGNYAYVADEGNGLLIVDISNPSSPILKGSYDTAGLAYDVAVSGNYAYVADSKNGLAIIDISNPSSPILVGNYNTSGYAECVSISGNYAYVAVDDSLVVVDISNPSSPILKGLYAGSAGDIAVSGNYVYASEGVNGLVILKANPESAFTVADFSSNITSGYAPLSIQFNDHSQNATSWNWDFGDGYNSTNQNPIHTYSSAGTYTVNLTVINENRTASKVAKIFVLNTSSSTEENSSGSEETGGDGVILTKDTGAPTKERKITPGFEIVYWVVSLLVAFWIKGSNKK”: the protein production entry was “failed”.
In the case of “MEIRMAAAADFAEIWPLFQAVISSGDTYVFTPDTPEQDAYDYWFGAGVRCWVAVHEGRVVGMYKLIDNQRGLGNHVANASFMVDGEARGLGIGKALGLHCIKQATDLGYRAIQFNFVVSTNTLAVALWQKLGFEIIATLPGAFNHSQLGYVDAYVMHRALLPN” it was “failed”; in that of “MEIRNVKGTKDYLPEEQVLRSKIKRACEDTFERYGCKPLETPTLNMYELMSYKYGGGDEILKEIYTLQDQGKRDLALRYDLTIPFAKVVAMNPNIRLPFKRYEIGKVFRDGPIKQGRFREFIQCDVDIVGVESVMAEAELMSMAFELFQTLNLEVTIQYNNRKLLNGILQAINIPTELTSDVILSLDKIEKIGIDGVRKDVLERGISEEMADTICNTVLSCLQLSIADFKEAFNNPLVADGVNELQQLQQYLIALGINENTIFNPFLARGLTMYTGTVYEIFLKDGSITSSIGSGGRYDNIIGAFRGDDMSYPTVGISFGLDVIYTALSQKETISST”, “not failed”.
In the case of “MEITKRIEELREEMVESLKKFISINSVNPAFGGPGEKEKADWLEGLLRDFGFEVDRCDVRDDRGIWRSNIVAKIPGKNREKTLWIVTHIDTVPPGDLSLWETDPFVPVVKDGKVYGRGAEDNGGSMIASIYAGKALIDLGITPEYNFGLALVADEEAGSEYGIQYLIEKGLFSPEDMFLVPDAGNEKGDFIEIAEKSILWFKVMVNGKQGHASRPQTTENALRKGAHLITEIDEALHRKYSDRDELFDEPLSTFEPTRAEKTVDNVNTVPGRFVFYFDCRVLPRYNLDEVLSIVKSILDGRGAELEVVVKQPAPEPTPPDSELVVKLSNVLRSLRGLEAKVGGIGGGTCAAFFRKKGWPAVVWSTIDETAHQPNEYRRISHMVEDAKVFALLGTER” it was “not failed”.
For the sequence “MEITVIASSSIDEGIGSWDLKTGTEQLQFKPCASPAHGLTAVGEKFLASSQLSARNTSGSIFYWSWTKPQAEVKSYPVEPIKALAANNEGTYLVGGGISGDIYLWEVATGKLLKKWHGHYRSVTCLVFSGDDSLLVSGSQDGSIRVWSLIRLFDDFQRQQGNTLYEHNFNEHTMSVTDIVIDYGGCNAVIISSSEDRTCKVWSLSRGKLLKNIIFPSVINALALDPGGCVFYAGARDSKIYIGAINATSEYGTQVLGSVSEKGKAITCLAYCADGNLLISGSEDGVVCVWDPKSLRHVRTLIHAKGSRKGPVNNIQIVRKTIVANSNKTQVSWKSRGALIPPPLEKYERPVEDTMDGIVTVDPPPFSDVPVYSSFLSADLIDEQVKELQQQGSAATEMEMERLKLEYKRSLQMNEQWQKNYENLLQVVMEEEQIGGTN”, the protein production entry is on record as “failed”.
On to “MEIYLVFVDAASNSNKFWTAKVEQNQLTVQWDRVGYKAQTKVHQFTSQAQAANKYNNLVFEKKAKGYQESQPQIESCGVVDIRRAMQLLNGLRSYVTNRNFNADYINLLNQYLKIIPTPLGMQLEPYRIFTSVADVDHQRELLSSLIPATPVAVTQAKQMPESQEKIVSLRGIHKNLWRHFLEHHHHHH”, for which the protein production result was “failed”.
Turning to “MEKCSVGGLELTEQTPALLGNMAMATSLMDIGDSFGHPACPLVSRSRNSPVEDDDDDDDVVFIESIQPPSISAPAIADQRNFIFASSKNEKPQGNYSVIPPSSRDLASQKGNISETIVIDDEEDVETNGGAEKKSSFFIEWGLPGTKNKTNDLDFSTSSLSRSKTKTGVRPFNPGRMNVAGDLFQNGEFATHHSPEMHLQRRLMSFFQ”, the protein production entry is “not failed”.
As for “MEKDDATASFSPSFSTYSGDRLVEIAERVCYKEKSDAEFEFSTAATSSSGDGGLVFPVFNKNLISGDVSPEKVIPLKDLFLRERNDQQPPQQTYSSSSDEEEEDDEFDSIPSEIYCPWTPARSTADMSPSGGCRKSKSTGSSSTSTWSTKRWRLRDFLKRSKSDGKQSLKFLNPTNRDDDDESSKSKKKVSVSVTVSAHEKFYLRNKAIKEEDKRKSYLPYKQDLVGLFSNIHRYGKTFPPF”, the entry is “failed”; as for “MEKDDSNDGSIIGGNGITAGKDVFLHNIKAPVNIGNTNNTNQNYTTYIISENIEEHTKSLIDFAQFCENKREYEKALDYYEQARVKLEKSESKILLVKVMMGEAVCHHKKGNLSRAKNLIFEAERLDPKNPTVLANIASQLKSENPDEAEIYAKKALEFDKNNFLAKCVIGLLEYDKGNIKDSLRTLKQASTINPNVGYPFNCMARIYSSEKDYGNAIKYGKKAVKIESDNAIFLMELAIDYMNIAFPENEVCISSDFSKMLKMEYLEKALKCLEKAKEMSESQGNNYLNCEIYTYLSRVHLAKGEFNKSIEYCEMIINSGLDTIDIYIILGEAYGECQNYDKVIEYYELLLKRENLTENHLFIVKANLATSYFYKNRLNEAEKLFKELIDENPENINLCIQMSNVLEENGKIEKAFSLLEKIDKFSQKPWDFYYMMGRLYHKKDDYESSVKYLKEAISKNSEAIPPRIYLINLYLECGMHKYAVKQAIELIQLAPTGINFYKLASLYYEIGDYKESAVFSRKALEADYGKVETYRLLCSSLLEANKLSEAKDEFENAFTKYPDDLELKLNYSATLSALEYTEKAIEILTQIISNDPNVVFAYKALARIYYKEASYEIALEYSKKAVFIEPEDEDAHFVMGCSLLNLGKNDEAVEEIQKVIEINPNFDSAWLIDAEKGMEYLGNLITISNHIIERYENGNITISKVGELLIKDTFDLLCHINNVKVAESLSLSDEKIDQLRNSPISKRDVLVDETMLGILAKTGSLDLLRLAFDHVYVIKELEDKIVIGPYLKDHPYRDVKNKLQIIDGGWIESLNPNDMIALATKKIVVENKFSKNDISFIALALDKDFLCLTEDLLLRIQLESINKPTCGIFGFVNYAVSKNIIKQDDAEKIFTKVKSVCIVE”, “failed”; as for “MEKDKKTTAKIYPFYPNGQFYFERGVEAFREQRIKEAIRYLVRASELEPGEPVILCQLAICYTEIGQFHKSNQLLREIMEKRLGNMEYCYYFIANNFAYMKDYRRALQYASRYLEIAADGDYAEEAKDLIEVLLEETPFGETIENGFSKLEQEFYSYKKEINRYLAEEDSASACDILKKVIDEKPNFWPAYNQLAALYFEQLKEEEGVKVLSDLIARNPGNLLGLCDLFIYHFYKGNREEADSLYSELRDVLPVLSHHKEKIGLIHAMMGDYEEADDLLEQVADLEVTERSKYYYYRAKSAYYLDEVEEAKMFWHSFLECDLYEDTRFPWEQEADLTNDTRLVLEMLQAESDMTHLLGVYAMTVSGNRPEFVLFHPLLDMSSWSYMEHLMFTDFDYFPDGNVEQNCYLIMKAMTILRENGLLLNEENLPLYETIFSLVLMENRKELILGRYTIETVASAIAKIFLPEMKLASVDEFECSKCARDIEQFLSR”, “failed”.
For the sequence “MEKDLLDKLGQHLVWRMGRAEDEDVLVVRVGLASATPRFRELPRLLNLPEAEMRRLVQEGRVRVEWVEE”, the protein production entry was “not failed”.
As for “MEKFQENNILEDKKVCINENEEAWNKETYNAWIKRFGTAKEAAEKIKSMPEKKLNVLLDKFGDVKGKKIFNLMGSNGNKAVALALLGADVTVVDFSEGNRRYALDLAEACGVKINFILSDVLRMPKEVMSGDYDIVFAEMGILHYFSDLSPFMNVIHSLLKDGGKAVLRDFHPVSTKLITSRGSTAKVRKHKVTGDYFDTSLEEKEVAYSKYLEEGEVEKVFLRKWNLGEIVTAVANTGLKIESLTEEPNLSSDVFDKGIPKTFTIVARK”, the entry is “failed”.
As for “MEKHKIALISDWYFPKVGGIEYSIHALAKTLNQRGHKVHVITRCYPNIPEYNIRDGVAIIRIKSSPFPGQQRFLMPGAYKELYRLLKEGNYDIINSHGLDSPLGMIALIAARKLGIPSVVTNHSLVGHTPLRLYLYLAGKLLVGNADAVIAVSSAVEKDTKLMTKKPVYRIFNGMEYEESNPIAPLPFDRKGKLVIITVARMTKKKGVQNLIGLAPSFLKKYENLIFLMIGDGPLLKNLEKKVEESGLSENFYFTGEVPRKAVLEYLEQADIFALPSSDEAFGISILEAISKNVPVVAMNHSGISDIITHGVNGYLADNLSEFASCLQDLIEKPALRAEFARKAGEGLSNYDWNKIYEQTCRVYREVIYEKHHHNS”, the protein production entry was “failed”.
In the case of “MEKIAILVDVQNVYYTCREQYGRHFDYNQFWSQVTQNRTVVKANAYAIASKDPQQRQFHHILRGIGFEVMLKPFIQRSDGSAKGDWDVGIALDGYELAQEVDTVVLVSGDGDFEPLVTRIAQRFQVKVEVYGVPKLTAQHLIDVASQFHPIEHRLL” it was “failed”.
As for “MEKKKPFSVLLMGSDARPGETNGRADTIILATANKQQNAVEMVSIPRDTKVDYGNGDIGKINASYSNGGPSGTVSAVEKLMPGVPVDYFISINMEGFKDLVDAVGGITVYNDIDLTEVNSKFVKGNITLNGTDALQYVRIRHEDPRGDFGRQDRQRDVIIGIANKVISSSGVSNFESIMKAVGDNFQTNMTLTDITSMATNYSSVLKNVDSQELKGEGEMIYSESYGFDLYYFAPDETDLERVINMFKKSLDITELEHHHHHH”, the entry is “not failed”.
